First the molecules themselves.
B1: Hairpin Ribozyme (parent)
chain: GUCCUCUUUCACGUGCGCGUGAAAGAGAGAAGUGAACCAGAGAAACACACGUUGUGGUAUAUUACCUGGUA

Variants of B1 are the subject of the data set. The data set is described as follows: self-cleavage, relative activity (ratio to wild type); higher = more cleavage; co-transcriptional.
Turning to C3A U70C, the self-cleavage is 0.675.
In the case of C3A U70G, the self-cleavage worked out at 0.708.
C3G A22U: the self-cleavage was determined as 0.246.
In the case of C3G G27A it was 0.266.
Regarding C3G G27C, the self-cleavage came to 0.0838.
In the case of C4A G34C, the self-cleavage was 0.676.
Take C4A G34A: the self-cleavage was found to be 0.37.
On to C3G A35C, for which the self-cleavage came to 0.36.
Consider C3A C18G, for which the self-cleavage turned out to be 0.602.
As to C3G A41G, the self-cleavage was determined as 0.193.
Take C4A A35C: the self-cleavage was 0.127.
Turning to C3U A44C, the self-cleavage worked out at 0.0442.
Consider C3A C46A, for which the self-cleavage worked out at 0.219.
As for C3G U14G, the figure is 0.145; as for U2G U63G, 0.252.
In the case of U2G U63C, the self-cleavage is 0.142.
As to C3U C48G, the self-cleavage was 0.159.
For C3U C48U, the self-cleavage was 0.172.
As for C3G G21A, the figure is 0.173.
For C3G G21C, the self-cleavage is 0.154.
As to C3G C4A, the self-cleavage is 0.185.
As for C3A U53A, the figure is 0.662; as for C3A U53C, 0.664; as for C3A A22U, 0.702.
On to C3A A22G, for which the self-cleavage came to 0.706.
As for U2C U7A, the figure is 0.119; as for C3A G27A, 0.27.
On to C3A G27U, for which the self-cleavage stood at 0.15.
In the case of C3U U67C it was 0.122; in that of C3U G40U, 0.119; in that of C3U G40C, 0.0768.
Regarding C3A U20C, the self-cleavage was determined as 0.728.
In the case of C3G C10G, the self-cleavage worked out at 0.182.
C4A A26U: the self-cleavage was 0.228.
On to C4A A26G, for which the self-cleavage came to 0.17.
With C4A A26C, the self-cleavage was found to be 0.13.
Take U2G G34U: the self-cleavage came to 0.984.
On to U2C U62G, for which the self-cleavage was determined as 0.0944.
Take U2G A35G: the self-cleavage was 0.213.
Regarding U2G A35C, the self-cleavage stood at 0.477.
With C3U A30G, the self-cleavage was found to be 0.104.
In the case of C3U A30U it was 0.0886.
As for C3G A45U, the figure is 0.122; as for U2C G56C, 0.166; as for C4A A11C, 0.353.
Regarding C3G U63C, the self-cleavage stood at 0.164.
With C3G U20A, the self-cleavage amounted to 0.222.
As for C3G A64C, the self-cleavage worked out at 0.129.
For the variant C3G A64G, the self-cleavage was 0.126.
Take C3G A23U: the self-cleavage is 0.28.
In the case of C3G A23G, the self-cleavage was found to be 0.126.
C3A A23G: the self-cleavage was 0.613.
In the case of C4A G54C it was 0.133; in that of C4A G54A, 0.184.
In the case of U2C U14G, the self-cleavage stood at 0.075.
Regarding U2G U14C, the self-cleavage was determined as 0.277.
Take U2G C66A: the self-cleavage worked out at 0.147.
Turning to C3A C10G, the self-cleavage turned out to be 0.631.
Regarding C3U U20C, the self-cleavage was 0.38.
Take C3U G54U: the self-cleavage stood at 0.227.
As for C3G G68U, the self-cleavage was determined as 0.102.
As for C3G C6A, the self-cleavage came to 0.267.
Turning to C4A A44U, the self-cleavage was found to be 0.239.
In the case of C4A C10G, the self-cleavage was 0.164.
In the case of C4A A39G it was 0.134; in that of C3U U8C, 0.253.
In the case of C3G G69C it was 0.177.
As for C3A U8A, the self-cleavage was found to be 0.547.
Regarding C4A A31G, the self-cleavage was 0.101.
Turning to U2C U20G, the self-cleavage was determined as 0.0615.
Take U2C U20A: the self-cleavage is 0.25.
In the case of C3G A39U, the self-cleavage turned out to be 0.114.
As for C3G A39G, the figure is 0.108; as for C3U A31G, 0.296; as for C3U A31C, 0.267.
For C3A U60A, the self-cleavage was determined as 0.515.
With C3G U60C, the self-cleavage is 0.314.
In the case of C3A G15A it was 0.524; in that of C3A G15U, 0.761.
Regarding C3A A47U, the self-cleavage is 0.112.
Regarding U2G U33C, the self-cleavage came to 0.0578.
As to U2G U33G, the self-cleavage is 0.171.
As for C3U C12A, the self-cleavage turned out to be 0.546.
On to C3U C12G, for which the self-cleavage was determined as 0.471.
For C3A A49U, the self-cleavage was found to be 0.0975.
As for C4A G29A, the self-cleavage is 0.119.
Take C3G C12U: the self-cleavage turned out to be 0.26.
On to C3G C12A, for which the self-cleavage amounted to 0.254.
In the case of U2C G42C, the self-cleavage was determined as 0.108.
Regarding C3G G51U, the self-cleavage was 0.342.
For C3G A26C, the self-cleavage was found to be 0.276.
On to C3U A43U, for which the self-cleavage amounted to 0.207.
As to C3G A11G, the self-cleavage amounted to 0.18.
As to C3G A11C, the self-cleavage came out at 0.137.
In the case of C3U C16U, the self-cleavage was 0.628.
For the variant C3A C16A, the self-cleavage was 0.677.
With C3G U7A, the self-cleavage is 0.321.
In the case of C3A C4A it was 0.204.
For the variant U2G G54U, the self-cleavage stood at 0.128.
As for C4A A43G, the figure is 0.0748; as for C3U G25U, 0.187; as for C3U G25A, 0.205.
As to U2G U62A, the self-cleavage was 0.0977.
Regarding C3U A59G, the self-cleavage turned out to be 0.0802.
As for C3U A39C, the self-cleavage was 0.199.
In the case of C3U A39U, the self-cleavage amounted to 0.253.
C3U A39G: the self-cleavage was 0.122.
Regarding C3U C38G, the self-cleavage was 0.201.
C3G U70A: the self-cleavage worked out at 0.252.
As for U2G A44U, the figure is 0.0754; as for C3G A44G, 0.15; as for U2G A23G, 0.318.
In the case of U2G A23C, the self-cleavage stood at 0.289.
Consider C3U G57C, for which the self-cleavage was determined as 0.094.
On to U2C G54A, for which the self-cleavage is 0.134.
In the case of U2G C38U, the self-cleavage turned out to be 0.24.
For C3A G25U, the self-cleavage turned out to be 0.406.
As to C3U U52A, the self-cleavage came out at 0.522.
For the variant C3A A41G, the self-cleavage was found to be 0.7.
C3U A61U: the self-cleavage came out at 0.227.
In the case of C3U A61G, the self-cleavage was found to be 0.117.
As for C3U A61C, the figure is 0.164.
As for C4A C16U, the figure is 0.197; as for C3G A47U, 0.0452.
Take C3U C4A: the self-cleavage was determined as 0.0854.
Take C3U C4U: the self-cleavage was found to be 0.39.
As for C3A A28U, the figure is 0.689; as for U2G A43C, 0.115; as for U2G C4G, 0.165.
As to U2G A45G, the self-cleavage worked out at 0.118.
Take C3U G69C: the self-cleavage worked out at 0.185.
In the case of U2G G56A it was 0.0909.
In the case of C4A A49U it was 0.189.
As for C3G G32A, the self-cleavage amounted to 0.0849.
On to U2G G57A, for which the self-cleavage came out at 0.169.
On to C4A G25A, for which the self-cleavage was 0.169.
As for C3U A64G, the figure is 0.212; as for U2G C10A, 0.258.
On to C3U C6G, for which the self-cleavage came out at 0.288.
With C3A G68U, the self-cleavage turned out to be 0.195.
For the variant C3A A11U, the self-cleavage came to 0.517.
Take U2G A41G: the self-cleavage came out at 0.38.
Consider C3G C48G, for which the self-cleavage amounted to 0.196.
With C3G C48A, the self-cleavage is 0.0662.
As for C3U A23C, the figure is 0.408; as for C3A G17C, 0.375.
In the case of C3A G17A, the self-cleavage turned out to be 0.785.
As for C3A G51C, the self-cleavage amounted to 0.615.
U2G A71U: the self-cleavage stood at 0.283.
Consider C3G C37A, for which the self-cleavage is 0.162.
As for C3U A22U, the figure is 0.395; as for U2G C3G, 0.785; as for C3A A36U, 0.319.
For C3A A36G, the self-cleavage was determined as 0.712.
Take C4A G15A: the self-cleavage turned out to be 0.227.
Consider C4A G15U, for which the self-cleavage stood at 0.182.
Turning to U2G G19C, the self-cleavage was found to be 0.338.
Turning to C3U A45U, the self-cleavage was 0.159.
As to C3U U60G, the self-cleavage came out at 0.331.
For the variant C3U U60C, the self-cleavage amounted to 0.705.
Take C3U G21C: the self-cleavage is 0.32.
As to C3U G21U, the self-cleavage came to 0.472.
With U2C U67A, the self-cleavage was 0.0712.
Consider C3U C65G, for which the self-cleavage amounted to 0.153.
Consider U2G U5A, for which the self-cleavage was determined as 0.288.
Turning to U2G U5C, the self-cleavage stood at 0.271.
In the case of C3G U52G, the self-cleavage came out at 0.212.

The record behind these values is the RNAGym collection of RNA variant scans (doi:10.7554/elife.80360).
